Assay results taken from paper doi:10.1101/2020.04.03.024018.
Read-outs that look alike come from different tables or passages of the source.

Tests used:
Test in all cases: single-molecule force spectroscopy
[1] = biological target: C5aR complexed with the PMX53 antagonist (free PMX53 injected) (human) (UniProt P21730)
[2] = biological target: C5a anaphylatoxin chemotactic receptor 1 (C5aR), wild type (human) (UniProt P21730)
[3] = biological target: C5aR D282A mutant (human) (UniProt P21730)
[4] = biological target: C5aR R175V/Y258V double mutant (human) (UniProt P21730)
[5] = biological target: C5aR complexed with the PMX53 antagonist (free PMX53 injected) (human) (UniProt P21730); remark: listed apart in the source

Chain of complement C5a anaphylatoxin (P01031 678-751): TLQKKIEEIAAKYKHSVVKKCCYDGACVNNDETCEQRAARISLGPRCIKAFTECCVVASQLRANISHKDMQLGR
Chain of C5aR complexed with the PMX53 antagonist (free PMX53 injected) (human) (P21730 whole entry, looked up, one chain of several): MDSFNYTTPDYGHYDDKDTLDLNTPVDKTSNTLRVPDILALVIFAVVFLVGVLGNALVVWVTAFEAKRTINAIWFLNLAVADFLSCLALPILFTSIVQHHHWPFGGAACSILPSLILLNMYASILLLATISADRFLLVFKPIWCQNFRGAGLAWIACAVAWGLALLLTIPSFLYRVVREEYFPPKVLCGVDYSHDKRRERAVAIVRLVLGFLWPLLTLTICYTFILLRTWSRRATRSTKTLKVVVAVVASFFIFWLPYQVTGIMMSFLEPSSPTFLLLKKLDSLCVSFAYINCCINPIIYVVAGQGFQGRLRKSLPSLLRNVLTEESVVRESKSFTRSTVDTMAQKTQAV
Chain of C5a anaphylatoxin chemotactic receptor 1 (C5aR), wild type (human) (P21730 whole entry): as the sequence (P21730 whole entry, looked up, one chain of several) above
Chain of C5aR R175V/Y258V double mutant (human) (P21730 whole entry R175V/Y258V): as the sequence (P21730 whole entry, looked up, one chain of several) above, with R175V, Y258V counted along it
Chain of C5aR D282A mutant (human) (P21730 whole entry D282A): as the sequence (P21730 whole entry, looked up, one chain of several) above, with D282A counted along it

For C5a des-Arg (ligand), the residence time τ0.5 [1] was 0.5 ms.

In the case of “Cys-Gly3-Phe-[{Orn}-Pro-{D-Cha}-Trp-Arg] (PMX53-Gly3-Cys), PMX53 antagonist as tethered to the AFM tip (peptide)”, the Kd [2] is reported as 4.7 nM, the equilibrium force Feq [2] is reported as 50 pN and the residence time [3] is reported as 0.1 ms. For the same substance, the reduction in residence time against C5aR WT [4] was 40%.

“complement C5a anaphylatoxin (from UniProt P01031 678-751) (ligand)” showed a Kd [1] of 800 mM, an equilibrium force Feq [1] of 23 pN and a residence time τ0.5 [1] of 0.2 ms. For the same substance, the equilibrium force Feq [5] was 23 pN.
